Assay results reported in paper doi:10.1101/2020.10.19.346148.

Tests used:
DNA-PKcs = DNA-PKcs (human? (HeLa cells), UniProt P78527 1-4128); test: cryo-EM structure
DNA-PKcs;Ku70;Ku80 = DNA-PKcs;Ku70;Ku80 (human? (HeLa cells);human?;human?, UniProt P78527;P12956;P13010 1-4128;1-609;1-732, ||); test: cryo-EM structure

DNA-PKcs, sequence (P78527 whole entry): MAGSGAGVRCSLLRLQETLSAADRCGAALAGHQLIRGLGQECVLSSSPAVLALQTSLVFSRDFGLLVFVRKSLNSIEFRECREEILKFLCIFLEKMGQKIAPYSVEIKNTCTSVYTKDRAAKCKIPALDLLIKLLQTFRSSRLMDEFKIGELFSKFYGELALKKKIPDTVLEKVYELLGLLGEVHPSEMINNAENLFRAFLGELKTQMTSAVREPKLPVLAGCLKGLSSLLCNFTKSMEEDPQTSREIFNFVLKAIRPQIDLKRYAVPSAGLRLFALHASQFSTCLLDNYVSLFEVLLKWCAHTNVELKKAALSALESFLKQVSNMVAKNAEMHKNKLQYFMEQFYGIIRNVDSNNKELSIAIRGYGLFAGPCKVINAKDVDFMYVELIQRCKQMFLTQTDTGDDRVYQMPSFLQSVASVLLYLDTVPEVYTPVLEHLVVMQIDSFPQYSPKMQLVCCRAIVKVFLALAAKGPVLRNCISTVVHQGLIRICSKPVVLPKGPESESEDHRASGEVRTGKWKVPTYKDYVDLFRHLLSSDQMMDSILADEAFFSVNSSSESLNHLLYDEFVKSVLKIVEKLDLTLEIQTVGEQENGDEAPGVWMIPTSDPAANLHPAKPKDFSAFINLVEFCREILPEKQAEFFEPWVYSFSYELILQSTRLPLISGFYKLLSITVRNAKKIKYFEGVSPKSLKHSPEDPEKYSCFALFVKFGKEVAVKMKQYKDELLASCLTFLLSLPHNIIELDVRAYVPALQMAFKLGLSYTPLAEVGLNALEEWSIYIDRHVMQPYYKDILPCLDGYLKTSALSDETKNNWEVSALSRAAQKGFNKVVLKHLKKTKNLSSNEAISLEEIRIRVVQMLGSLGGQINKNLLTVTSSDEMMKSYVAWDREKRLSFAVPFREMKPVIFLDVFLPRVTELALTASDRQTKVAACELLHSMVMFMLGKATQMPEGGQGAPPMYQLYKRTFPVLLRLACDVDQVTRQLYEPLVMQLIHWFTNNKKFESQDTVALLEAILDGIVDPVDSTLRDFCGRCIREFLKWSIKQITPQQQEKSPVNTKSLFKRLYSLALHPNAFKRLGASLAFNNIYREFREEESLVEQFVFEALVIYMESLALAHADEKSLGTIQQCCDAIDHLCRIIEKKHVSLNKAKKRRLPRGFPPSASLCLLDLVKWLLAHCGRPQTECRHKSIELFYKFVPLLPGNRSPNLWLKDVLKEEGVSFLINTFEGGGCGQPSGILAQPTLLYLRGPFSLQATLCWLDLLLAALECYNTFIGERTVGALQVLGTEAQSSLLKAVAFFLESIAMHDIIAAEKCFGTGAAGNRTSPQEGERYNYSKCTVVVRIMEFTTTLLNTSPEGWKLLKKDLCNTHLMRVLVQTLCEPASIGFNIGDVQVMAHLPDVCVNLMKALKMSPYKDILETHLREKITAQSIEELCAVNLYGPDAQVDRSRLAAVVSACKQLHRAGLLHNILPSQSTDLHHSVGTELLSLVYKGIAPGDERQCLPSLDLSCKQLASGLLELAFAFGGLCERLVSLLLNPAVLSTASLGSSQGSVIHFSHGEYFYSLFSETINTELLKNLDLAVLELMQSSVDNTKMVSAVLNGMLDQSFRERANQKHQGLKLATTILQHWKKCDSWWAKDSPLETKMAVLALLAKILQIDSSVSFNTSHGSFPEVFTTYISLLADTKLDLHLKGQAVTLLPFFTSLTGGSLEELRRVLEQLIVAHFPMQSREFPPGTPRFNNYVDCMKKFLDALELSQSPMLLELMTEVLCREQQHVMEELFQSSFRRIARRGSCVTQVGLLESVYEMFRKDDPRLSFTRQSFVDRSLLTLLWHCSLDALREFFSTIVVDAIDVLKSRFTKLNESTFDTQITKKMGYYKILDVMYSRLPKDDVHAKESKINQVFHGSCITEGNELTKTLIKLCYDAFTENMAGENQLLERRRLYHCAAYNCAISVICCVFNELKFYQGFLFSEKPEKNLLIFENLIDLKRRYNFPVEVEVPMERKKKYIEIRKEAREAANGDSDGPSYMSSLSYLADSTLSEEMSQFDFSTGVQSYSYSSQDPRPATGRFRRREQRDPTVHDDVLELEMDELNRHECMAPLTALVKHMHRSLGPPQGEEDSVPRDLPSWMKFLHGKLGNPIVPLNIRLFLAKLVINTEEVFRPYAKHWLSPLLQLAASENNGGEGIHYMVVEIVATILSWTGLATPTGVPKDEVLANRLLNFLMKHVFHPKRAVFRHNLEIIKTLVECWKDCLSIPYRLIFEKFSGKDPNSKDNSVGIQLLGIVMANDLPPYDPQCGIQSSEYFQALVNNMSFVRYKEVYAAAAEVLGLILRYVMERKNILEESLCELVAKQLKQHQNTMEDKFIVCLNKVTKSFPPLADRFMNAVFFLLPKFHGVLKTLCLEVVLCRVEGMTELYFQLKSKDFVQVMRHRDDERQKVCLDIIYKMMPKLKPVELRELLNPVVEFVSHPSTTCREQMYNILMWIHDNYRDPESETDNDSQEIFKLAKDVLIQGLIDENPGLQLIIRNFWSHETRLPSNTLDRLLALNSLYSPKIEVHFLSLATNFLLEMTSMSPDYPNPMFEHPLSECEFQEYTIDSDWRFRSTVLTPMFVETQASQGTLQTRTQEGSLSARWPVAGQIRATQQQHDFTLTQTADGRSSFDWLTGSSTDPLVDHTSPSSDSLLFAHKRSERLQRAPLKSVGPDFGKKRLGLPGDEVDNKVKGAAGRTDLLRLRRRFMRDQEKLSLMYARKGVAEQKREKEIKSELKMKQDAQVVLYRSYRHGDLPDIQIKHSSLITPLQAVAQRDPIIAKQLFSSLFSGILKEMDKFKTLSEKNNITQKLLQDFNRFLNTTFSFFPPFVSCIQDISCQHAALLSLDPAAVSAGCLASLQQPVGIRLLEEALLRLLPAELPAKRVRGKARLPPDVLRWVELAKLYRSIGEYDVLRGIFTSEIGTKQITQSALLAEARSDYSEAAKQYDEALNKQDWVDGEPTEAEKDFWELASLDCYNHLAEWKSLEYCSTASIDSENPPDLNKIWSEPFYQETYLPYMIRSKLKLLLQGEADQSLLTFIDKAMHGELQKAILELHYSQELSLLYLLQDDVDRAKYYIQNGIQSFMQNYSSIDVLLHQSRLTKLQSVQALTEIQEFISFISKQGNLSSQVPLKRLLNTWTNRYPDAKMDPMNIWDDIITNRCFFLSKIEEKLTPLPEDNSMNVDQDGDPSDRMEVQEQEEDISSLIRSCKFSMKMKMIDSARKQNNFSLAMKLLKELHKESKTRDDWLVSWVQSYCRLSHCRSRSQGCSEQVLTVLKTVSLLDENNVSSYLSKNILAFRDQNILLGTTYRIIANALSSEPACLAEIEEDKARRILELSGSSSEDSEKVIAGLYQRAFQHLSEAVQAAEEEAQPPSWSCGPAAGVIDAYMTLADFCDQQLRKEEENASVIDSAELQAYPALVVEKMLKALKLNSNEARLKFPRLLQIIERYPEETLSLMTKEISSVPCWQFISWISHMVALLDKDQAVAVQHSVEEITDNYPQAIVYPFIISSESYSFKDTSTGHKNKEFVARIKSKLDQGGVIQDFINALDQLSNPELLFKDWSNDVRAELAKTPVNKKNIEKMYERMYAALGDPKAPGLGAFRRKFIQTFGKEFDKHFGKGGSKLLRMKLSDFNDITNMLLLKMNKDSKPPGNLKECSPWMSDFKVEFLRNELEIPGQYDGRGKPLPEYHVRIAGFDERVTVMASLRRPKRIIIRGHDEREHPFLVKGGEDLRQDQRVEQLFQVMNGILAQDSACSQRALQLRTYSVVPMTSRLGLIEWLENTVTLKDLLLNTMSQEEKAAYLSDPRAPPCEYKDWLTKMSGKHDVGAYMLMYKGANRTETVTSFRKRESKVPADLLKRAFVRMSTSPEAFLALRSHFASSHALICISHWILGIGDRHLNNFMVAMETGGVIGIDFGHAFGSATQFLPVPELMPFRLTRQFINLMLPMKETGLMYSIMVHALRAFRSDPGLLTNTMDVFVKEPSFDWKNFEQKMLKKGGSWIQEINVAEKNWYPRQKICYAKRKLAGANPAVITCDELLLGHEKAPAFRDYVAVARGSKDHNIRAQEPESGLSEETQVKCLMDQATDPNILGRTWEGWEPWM

B1: 40 bp blunt DNA with two internal nicks (dsDNA)
DNA 1: GCATGCTCTACTGCTTCGATATCG
DNA 2: AAGCAGTAGAGCATGC
DNA 3: GCATGCTCTACTGCTTCGATATCG
DNA 4: AAGCAGTAGAGCATGC
binding result (DNA-PKcs): binds | binding result (DNA-PKcs;Ku70;Ku80): binds
